Here are results for two molecules from patent publication US20010041670A1, “Thrombospondin-binding region of histidine-rich glycoprotein and method of use” (priority 1999, published 2001).

Entries after “also recorded” stand apart in the source; their conditions may differ.

In test [1] the target is T1, 125I-TSP-1 binding to HRGP (Homo sapiens, UniProt P07996).
T1 construct: TSP-1 was purified from human platelet releasate; from tissue; host or cells: TSP-1 from human platelet releasate; HRGP from human plasma
T1 sequence (P07996 19-1170): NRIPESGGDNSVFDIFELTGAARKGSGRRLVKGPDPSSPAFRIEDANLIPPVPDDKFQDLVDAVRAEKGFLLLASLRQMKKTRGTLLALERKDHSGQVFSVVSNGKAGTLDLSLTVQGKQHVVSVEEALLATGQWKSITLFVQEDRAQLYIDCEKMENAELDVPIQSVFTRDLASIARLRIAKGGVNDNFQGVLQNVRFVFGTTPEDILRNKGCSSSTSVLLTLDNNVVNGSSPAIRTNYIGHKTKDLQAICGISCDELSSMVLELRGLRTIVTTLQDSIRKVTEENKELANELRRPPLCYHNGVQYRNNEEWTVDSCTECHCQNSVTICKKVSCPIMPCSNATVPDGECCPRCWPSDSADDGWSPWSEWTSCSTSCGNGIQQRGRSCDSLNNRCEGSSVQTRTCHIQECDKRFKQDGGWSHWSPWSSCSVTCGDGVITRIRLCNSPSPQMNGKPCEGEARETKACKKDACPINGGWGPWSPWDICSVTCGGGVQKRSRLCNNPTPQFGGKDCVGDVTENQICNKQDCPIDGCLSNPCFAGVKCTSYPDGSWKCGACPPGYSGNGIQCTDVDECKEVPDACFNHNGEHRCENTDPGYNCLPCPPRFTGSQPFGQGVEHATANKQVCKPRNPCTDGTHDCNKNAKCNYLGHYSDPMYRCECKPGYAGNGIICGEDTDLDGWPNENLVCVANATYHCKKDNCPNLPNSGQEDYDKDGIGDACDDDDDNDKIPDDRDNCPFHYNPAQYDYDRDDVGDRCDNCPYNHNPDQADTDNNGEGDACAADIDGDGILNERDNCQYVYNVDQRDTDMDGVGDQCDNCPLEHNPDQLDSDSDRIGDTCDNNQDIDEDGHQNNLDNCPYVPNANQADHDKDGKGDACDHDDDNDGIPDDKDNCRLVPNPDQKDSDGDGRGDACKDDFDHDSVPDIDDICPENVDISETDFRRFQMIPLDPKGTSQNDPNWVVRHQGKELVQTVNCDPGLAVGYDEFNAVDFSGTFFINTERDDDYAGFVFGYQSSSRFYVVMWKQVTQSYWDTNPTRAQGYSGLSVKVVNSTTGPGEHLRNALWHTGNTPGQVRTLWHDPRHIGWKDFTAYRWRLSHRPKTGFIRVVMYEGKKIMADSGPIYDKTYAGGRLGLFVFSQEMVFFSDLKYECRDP
Put plainly: Solid phase binding assay, competition with CD36 fusion proteins. To be noted: increasing concentrations of fusion protein. As to the method: Solid phase binding assays were performed as described (18). Briefly, HRGP in carbonate buffer was immobilized on 96-well strips (Immulon-4 Remove-a-well, Dynatech Laboratories Inc., Burlington, Mass., USA) overnight at 4° C. After blocking with 1% BSA, ^125I-TSP-1 was incubated in the presence of varying concentrations of CD36-FP in triplicate, and bound radioactivity was quantified on a gamma counter. Non-specific binding was determined by carrying out binding in the presence of excess unlabeled ligand.
TSP-1 binding to HRGP: competition with CD36.

For a further test, the system named is C57B1/6 mice. Description: In vivo subcutaneous Matrigel plug assay. As to the method:
In vivo subcutaneous Matrigel plug assays were performed as described (23). Briefly, 500 μl of Matrigel mixed with proteins or growth factors was injected subcutaneously near the abdominal midline of C57B1/6 mice. Gels were removed after 10 days, fixed in 1% paraformaldehyde, embedded in paraffin, sectioned, and stained with hematoxylin and eosin. Immunohistochemistry was performed on unstained sections using an anti-human von Willebrand factor (vWF) IgG (Dako, Glostrup, Denmark) or isotype-matched control (Sigma) and a biotin-streptavidin-peroxidase antibody and development system (Vector Laboratories, Burlingame, Calif.) as described (24) and counterstained with Mayer's hematoxylin (ImmunoGenex, San Ramon, Calif., USA). After scanning, the degree of angiogenesis was determined by counts of vWF-positive blood vessels using Scion Image. For breast tissue, frozen sections of freshly obtained human breast carcinoma were incubated with rabbit antibody to HRGP or CSVTCG or murine monoclonal antibody to TSP, or isotype-matched controls (Sigma), and developed as above. These studies were approved by the Institutional Animal Use Committee.
Matrigel mixed was injected subcutaneously into the midline of mice and resulting plugs were harvested after 10 days, fixed, and paraffin embedded, sectioned, stained with. hematoxylin and eosin, and photographed at 200× magnification. […]

The test system of test [2] is Human dermal microvascular EC (HMVEC). Description: Endothelial cell chemotaxis assay (modified Boyden chamber). The class given is cell-based. As to the method:
Endothelial Cell (EC) chemotaxis assays were performed as described using a modified Boyden chamber with 8 μm gelatin-coated membranes (22). Briefly, confluent flasks of HMVEC were grown in 0.1% MVGS overnight and plated at 3×10^4 cells per well on a gelatinized porous membrane (Osmonics, Minnetonka, Minn., USA). Reagents were added to wells and cells were allowed to migrate at 5% CO2, 37° C. for 4 hours. Membranes were stained and the number of cells migrating was counted. Results were expressed as the percentage of maximum cells migrating towards bFGF (38-113 cells/10 high power fields) minus the number of cells migrating in the absence of bFGF (4-13cells/10 hpf).
HRGP inhibits the anti-chemotactic effect of TSP-1. Because the type I repeat also mediates the interaction of TSP-1 with HRGP, we studied the effect of HRGP on angiogenesis. EC migration towards bFGF was measured using a modified Boyden chamber with an 8 μm gelatin-coated membrane in the presence and absence of TSP-1 (2 nM) and increasing concentrations of HRGP (0-100 nM). Data from 3 separate experiments are expressed as a percentage of migration in the presence of bFGF alone. We measured migration of CD36-expressing microvascular EC towards bFGF. The addition of TSP-1 inhibited bFGF-induced migration of EC (approx. 30%±3% of control 100% value without added TSP-1). […]

In a further test the target is TSP-1 (Homo sapiens, UniProt P07996). To be noted: saturable, reversible binding; read-out: affinity of HRGP binding to TSP-1; cited from earlier work.
TSP-1, sequence (P07996 19-1170): as above
The next test concerns CD36 null mice. Put plainly: In vivo corneal angiogenesis assay, CD36 null mice. The protocol: (§1) FIG. 3. HRGP abrogates the effect of endogenous TSP in the corneal angiogenesis assay. Pellets containing bFGF at various doses with and without HRGP (50 ng) were implanted into the corneas of wild type C57BL/6 (closed symbols) or CD 36 null mice (open symbols), and area of neovascularization was measured after five days. HRGP (--●--) augmented the dose-dependent effect of bFGF (—▪—) in the wild type mice (p=0.0004 by ANOVA). In CD36 null mice, there was an enhanced dose response to bFGF (—□—) (p=0.01), but no effect seen with the addition of HRGP (--◯--). Results represent mean±SE of>6 replicates.
(§2) In vivo corneal angiogenesis assays. Pellets composed of hydron (Hydro Med Sciences, Cranbury, N.J.) and sucralfate (Teva Pharmaceuticals, North Wales, Pa.) were mixed with proteins or growth factors, and were prepared and implanted into the comeas of C57B1/6 mice as described (38). After 5 days, eyes were viewed under a dissecting microscope and photographed with a Sony DKC-1000 digital camera. The area of neovascularization was calculated by measuring vessel length from limbus towards the pellet and number of clock hours of vascularization as described (39, 40). Studies were approved by the Institutional Animal Use Committee.
In fact, the dose response curve of bFGF in wild type mice in the presence of HRGP was similar to that seen with bFGF alone in the CD36 null mice. […]

The subject of test [3] is Human dermal microvascular EC (HMVEC). Description: Tube formation assay on Matrigel. The class given is cell-based. The protocol:
Tube Formation Assay. Early passage (P2 or P3) HMVEC in 0.2% MVGS were grown on 150 μl of Matrigel (Becton Dickinson, Bedford, Mass., USA) at 3×10^4 cells per well of 48-well plates. Reagents were added and cells were incubated at 5% CO2, 37° C. for 24 hours then photographed. Images were scanned and number of branched structures was counted using Scion Image software (Frederick, Md., USA).
HRGP inhibits the anti-angiogenic effect of TSP-1 in vitro. Microvascular EC were grown on Matrigel under low serum concentrations (0.2%) in the presence of bFGF (2 ng/ml), conditions which are known to induce tube formation. […] The anti-angiogenic activity of TSP-1 was abolished by the addition of HRGP (15 nM), which restored the ability of the EC to form tubular structures. (c).

The subject of the next test is wild type C57BL/6 mice. Description: In vivo corneal angiogenesis assay, wild type mice. As to the method: as §1, §2
In a second type of in vivo experiment, hydron/sucralfate pellets containing bFGF, TSP-1, and/or HRGP were implanted in the corneas of C57B1/6 mice. […] Similar results were obtained when HRGP was added in a separate pellet from bFGF and TSP-1.
In fact, the dose response curve of bFGF in wild type mice in the presence of HRGP was similar to that seen with bFGF alone in the CD36 null mice. […] The resulting pellet was removed after 10 days, processed and stained for histologic examination and blood vessel counts. TSP-1 inhibited bFGF-induced blood vessel formation (14±8% of blood vessels/mm^2 seen with bFGF), and that HRGP inhibited the anti-angiogenic effect of TSP-1 (80±13%).

B1: CD36 FP298-439: CD36-GST fusion protein which does not bind TSP-1 (protein)
chain: KAFASPVENPDNYCFCTEKIISKNCTSYGVLDISKCKEGRPVYISLPHFLYASPDVSEPIDGLNPNEEEHRTYLDIEPITGFTLQFAKRLQVNLLVKPSEKIQVLKNLKRNYIVPILWLNETGTIGDEKANMFRSQVTGKIN
modifications: left off: a dimerising Fc or GST
On to B1, for which the “inhibition of 125I-TSP-1 binding to immobilized HRGP” value in test [1] is on record as “had no effect”.

B2: HRGP: Histidine-rich glycoprotein, plasma protein purified from human plasma by lys-plasminogen affinity chromatography (protein)
chain: VSPTDCSAVEPEAEKALDLINKRRRDGYLFQLLRIADAHLDRVENTTVYYLVLDVQESDCSVLSRKYWNDCEPPDSRRPSEIVIGQCKVIATRHSHESQDLRVIDFNCTTSSVSSALANTKDSPVLIDFFEDTERYRKQANKALEKYKEENDDFASFRVDRIERVARVRGGEGTGYFVDFSVRNCPRHHFPRHPNVFGFCRADLFYDVEALDLESPKNLVINCEVFDPQEHENINGVPPHLGHPFHWGGHERSSTTKPPFKPHGSRDHHHPHKPHEHGPPPPPDERDHSHGPPLPQGPPPLLPMSCSSCQHATFGTNGAQRHSHNNNSSDLHPHKHHSHEQHPHGHHPHAHHPHEHDTHRQHPHGHHPHGHHPHGHHPHGHHPHGHHPHCHDFQDYGPCDPPPHNQGHCCHGHGPPPGHLRRRGPGKGPRPFHCRQIGSVYRLPPLRKGEVLPLPEANFPSFPLPHHKHPLKPDNQPFPQSVSESCPGKFKSGFPQVSMFFTHTFPK
Regarding B2, the “blood vessels/mm^2, % of that seen with bFGF” value in the test on C57B1/6 mice (HRGP added to bFGF + TSP-1 in Matrigel, 10 days) was found to be 80±13%. In the test on C57B1/6 mice (plugs harvested after 10 days, representative images of 4 experiments), the “angiogenesis in Matrigel plug (histology)” value was “had no effect”. For the same molecule, the “EC migration towards bFGF, percentage of control” value is given as “approx. 30%±15%” in test [2] (TSP-1 2 nM plus 10 nM HRGP) and “approx. 75%±15%” in test [2] (TSP-1 2 nM plus 100 nM HRGP). The Kd with TSP-1 was 7 nM. Also, the “Area of Neovascularization (mm^2) ± SE” value came out at 0.02 ± 0.004 mm^2 in the test on CD36 null mice (CD36 −/− mouse, corneal pellet, 5 days) and 0 ± 0 mm^2 with wild type C57BL/6 mice (Wild type mouse, corneal pellet, 5 days). Besides, the “effect on sensitivity to low concentrations of bFGF” value in the test with CD36 null mice (HRGP 50 ng, CD36 null mice) is reported as “did not effect sensitivity; also recorded: no effect”. In test [3] (HRGP 15 nM added to TSP-1 2 nM + bFGF 2 ng/ml), the “effect on the anti-angiogenic activity of TSP-1 (tube formation)” value was “abolished”. In addition, in test [3] (agent alone, low serum, Matrigel), the “induction of tube formation” value is on record as “did not directly induce tube formation”. Also, in the test on wild type C57BL/6 mice (HRGP 50 ng, bFGF 2.5 to 10 ng, wild type mice, p=0.0004 by ANOVA), the “effect on angiogenic activity (dose response) of bFGF” value was “significantly increased; also recorded: augmented”. For the same molecule, in the test on wild type C57BL/6 mice (pellet without bFGF), the “induction of corneal angiogenesis by agent alone” value is “did not induce angiogenesis”.
